Where no end group is shown, it is not given here.
Assay: Corneal penetration of radioactive topical ocular indolicidin formulation
Format: in vivo, New Zealand White Rabbits
Protocol: The objective of this study was to determine the corneal penetration potential of a ^3H-labelled indolicidin molecule. The ^3H labeled L-indolicidin; L-IND was tested for corneal penetration using New Zealand White Rabbits (Western Oregon Rabbit Co.). The rabbit is one of the model species for the assessment of toxicity and is one of the species recommended for that purpose by toxicity testing guidelines of all regulatory agencies. See “Animal Models in the Evaluation of Chemotherapy of Ocular Infections” in Experimental Models in Antimicrobial Chemotherapy, Vol 1, p 187-211.
Administration of ^3H-L-IND was by epicomeal application into both eyes, 20 μL L-IND once hourly for six applications. The animals were euthanized immediately prior to harvesting of aqueous humor.
Male animals were initiated as young adults and weighed 2-3 kg. Two animals were assigned to the test (2/group; one treatment group). […]
Clinical signs were evaluated immediately after 1st dose administration and immediately prior to euthanasia and necroscopy. […]
Evaluations were confined to the eye. […] An estimate of the total volume of aqueous humor harvested was recorded and analyzed for ^3H content. […]
The two samples of aqueous humor from each of the rabbits were analyzed for their radioactivity levels. […]

## ^3H-Indolicidin: ^3H-labelled indolicidin molecule for the corneal penetration study (ILPWKWPWWPWRR-NH2; also: tritium label; UniProt P33046 131-143, looked up)
20 μL epicorneal, once hourly for six applications, both eyes
  radioactivity level in aqueous humor: equal to that of background counts
Topical ocular, six applications
  corneal penetration: did not penetrate the cornea
